In the nanobody polyreactivity screen of Harvey et al. (2022):

Assay: yeast display, Sf9 membrane polyspecificity reagent, FACS + sequencing; frameworks hold sequencing errors
In short: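 Synthetic nanobody libraries on Saccharomyces cerevisiae BJ5465 were galactose-induced for 36–48 hours, stained 1 hour at 4 °C with 10% biotinylated, detergent-solubilized Sf9 membrane reagent and enriched on streptavidin microbeads. FACS then separated cells into low and high (top ~1%) gates by anti-HA (expression) and streptavidin (reagent binding) fluorescence. Genes were colony-PCR amplified, MiSeq 2 × 250 sequenced and CDR-length filtered. A clone's polyreactivity label is that of its gate of origin.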

| Sequence | polyreactivity (PSR sort gate) |
| --- | --- |
| QVQLVESGGGLVQAGGSLRLSCAASGRTFTYYAMGWYRPAPGKERELVARITTDGSSTYYADSVKGRFTISRDNAKNTVYLQMNSLKPEDTAVYYCAADFQYAIHTDMDYWGQGTQVTVSS | high polyreactivity |
| QVQLVESGGGLVQAGGRLRLSCAASGSSSTPYTMGWYRPAPGKERELVAAISWIGDTTSYADSVKGRFTISRDNAKNTVYLQMNSLKPEDTAVYYCNAEHRGYDYWGHGTQVTVSS | low polyreactivity |
| QVQLVESGGGLVQAGGSLRLSCAASGRIFDRNAMGWYRQAPGTERELVAAISRRGGSTYYADSVKGRFTISRDNAMNTVYLQMNSLKPEDTAVYYCNTGYSTRLHDYWGQGTQVTVSS | high polyreactivity |
| QVQLVESGGGLVQAGGSLRLSCDASGFTFATYAMGRYRQAPGKERELVAAISSGGYTYYADSVKGRFTISRDNAKNTVYLQMNSLKPEDTGVYYCNVSIGLFYLWYFNRYYYWGQGTQVTVSS | high polyreactivity |
| QVQLVESGGGLVQAGGSLRLSCAASVSIILDNAMGWYRQAPGKERELVASIDWSGGSTDYADSVKGRFTISRDNAKNTVYLQMNSLKPEDTAVYYCNAERYPYRLRARKLDYWGQGTQVTVSS | low polyreactivity |
| QVQLVESGGGLVQAGGSLRLSCAASGFIFVPNAMGWYRQAPGKERELVAAIRWSDGTTYYADSVKGRFTISRDNAKNNVYLQMNSLKPEDTAVYYCATDHDPRYDYWGQGTQVTVSS | high polyreactivity |
| QVQLVESGGGLVQAGGSLRLSCSASGYTFPLYAMGWYRQAPGKERELVADINIGGASTYYADSVKGRFTISRDNAKNTVYLQMNSLKPEDTAVYYCAIQYYDGYFPTFEYDYWGQGTQVTVSS | low polyreactivity |
| QVQLVESGGGLVQAGGSLRLSCAASGSIFPKYAMGWYRQAPGKERELVAAISRGGGSTYYADSVKGRFTISRDNAKNTVYLQMNSLKPEDTAVYYCAALFTPALSEYDYWGQGTQVTVSS | high polyreactivity |
| QVQLVESGGGLVQAGGSLRLSCAASGSTFPLYAMGWYRQAPGKERELVAAITWSGANTYYADSVKGRFTISRDNAKNTVYLQMNSLKPEDTAVYYCAALYYWDQPQLEFSYWGQGTQVTVSS | low polyreactivity |
| QVQLVESGGGLVQAGGSLRLSCAASGITFDINAMGWYRQAPGKERELVAAISKSGRTYYADSVKGRFTISRDNAKNTVYLQMNSLKPEDTAVYYCNKVPYPSNDYWGQGTQVTVSS | high polyreactivity |
| QVQLVESGGGLVQAGGSLRLSCAASGSTFILYAMGWYRQAPGKERELVAAISSDGSTYYADSVKGRFTISRDNAKNTVYLQMNSLKPEDTAVYYCAADSDTFYYTGYDYDYWGQGTQVTVSS | low polyreactivity |
| QVQLVESGGGLVQAGGSLRLSCAASGFIFTSYAMAWYRQAPGKERELVAAIDYSGGSTYYADSVKGRFTISRDNAKNTVYLQINSLKPEDTAVYYCSAGEGLWPGSQTYDYWGQATQVTVSS | low polyreactivity |
| QVQLVESGGGLVQAGGSLRLSCAASGIIFFDYAMGWYRQAPGKDRELVAAISSGGGNTYYADSVKGRFTISRDNAKNTVYLQMNSLKPEDSAVYYCAAEPYIYGEQGAYDYWGQGTQVTVSS | low polyreactivity |
| QVQLVESGGGLVQAGGSLRLSCAASGLIFRWYAMGWSRQAPGKEWELVAAINYSGGRTYYADSVKGRFTISRDNAKNTVYLQMNSLKPEDTAVYYCAADGTYVWGSEEGNYWGQGTQVTVSS | low polyreactivity |
| QVQLVESAGGLVQAGARLRLSCAASGFTFQYYALGWYRQAPGKERELVATISTSGGNTYYADSVKGRFTITRDNAKNTVYLQMNSLKPEDTAVYYCAARRYRASSRGYGYWGQGTQVTVSS | high polyreactivity |
| QVQLVESGGGLVQAGGSLRLSCAASGSIFSSYVMGWYRQAPGKERELVAAISRSGGSTYYADSVKGRFTISRDNAKNTVYLQMNSRKPEDTAFYYCAADWTRGSPGMDYWGQGTQVTVSS | high polyreactivity |
| QVQLVESGGGLVQAGGSLRLSCAASGIIFYWYAMGRYRQAPGKERELVATINSTGGSTNYADSVKVRFTISRDNAKNTVYLQMNSLKPEDTAVYYCAKDWNDDQHSWDTPFDYWGQGTQVTVSS | low polyreactivity |
